This is an account of results in publication doi:10.1101/2020.02.05.935528.

For the assay, the target named is Nitrosopumilus maritimus 4-hydroxybutyryl-CoA dehydratase (Nitrosopumilus maritimus). Briefly: crystal structure.

On to “Nitrosopumilus maritimus 4-hydroxybutyryl-CoA dehydratase (enzyme)”, for which the stoichiometry N (commonly the number of molecules, sites or subunits per partner or assembly) came out at 4.
